Results from patent US20200031919A1 (SUZHOU KANOVA BIOPHARMACEUTICAL, published 2020).
Residue numbers refer to the chain shown, from its start. Like-named read-outs stand apart in the source and are kept apart here.

B1: anti-IL17A/F antibody hIgG VH1-1/VL5 (antibody, V domains shown)
VH: QFQLVQSGAEVKKPGASVKVSCKASGYTFTDYNLNWVRQAPGKGLEWMGVIHPDYGTTSYNQKFKDRVTMTVDTSTSTVYMELSSLRSEDTAVYYCVRYDYGDAMDYWGQGTLVTVSS
VL: DIVMTQSPLSLSVTPGQPASISCRSSQSLVHSNGNTYLHWYLQKPGQPPQLLIYKVSNRFSGVPDRFSGSGSGTDFTLKISRVEAEDVGVYYCSQSTHVPLTFGQGTKLEIKR
notes: also called VH1-1/VL5 mAb; hIgGc VH1-1/VL5
B2: humanized anti-IL17A/F antibody VH1-1/VL2-1 (antibody, V domains shown)
VH: B1 VH
VL: DIVMTQTPLSSSVTLGQPASISCRSSQSLVHSNGNTYLHWLQQRPGQPPRLLIYKVSNRFSGVPDRFSGSGAGTDFTLKISRVEAEDVGVYYCSQSTHVPLTFGQGTKLEIK
notes: It was tested as a humanized IgG captured through its Fc by an anti-human Fc antibody

What was measured:
[1] = molecular target: T1, human IL-17A (human, UniProt Q16552 24-155); test: cell-based or functional assay
T1 sequence (looked up): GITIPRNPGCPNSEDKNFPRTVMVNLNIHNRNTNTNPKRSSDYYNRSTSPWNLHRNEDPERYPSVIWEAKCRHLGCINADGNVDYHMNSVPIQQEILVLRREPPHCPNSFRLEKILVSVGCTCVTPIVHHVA

[2] = molecular target: T2, human IL-17F (human, UniProt Q96PD4 31-163); test: cell-based or functional assay
T2 sequence (looked up): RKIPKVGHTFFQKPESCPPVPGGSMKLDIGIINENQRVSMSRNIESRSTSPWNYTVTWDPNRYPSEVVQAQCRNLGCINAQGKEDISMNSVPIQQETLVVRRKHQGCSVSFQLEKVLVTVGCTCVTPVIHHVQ

[3] = molecular target: T3, IL-17A/F heterodimer (UniProt Q16552 24-155; Q96PD4 31-163, limits assumed); test: cell-based or functional assay
T3 sequence (looked up) 1: T1 sequence (looked up)
T3 sequence (looked up) 2: T2 sequence (looked up)

[4] = molecular target: T4, human IL-17D (human, UniProt Q8TAD2 18-202, limits assumed); test: ELISA, cytokine coated at 2 µg/ml
T4 construct: Commercial recombinant protein
T4 sequence (looked up): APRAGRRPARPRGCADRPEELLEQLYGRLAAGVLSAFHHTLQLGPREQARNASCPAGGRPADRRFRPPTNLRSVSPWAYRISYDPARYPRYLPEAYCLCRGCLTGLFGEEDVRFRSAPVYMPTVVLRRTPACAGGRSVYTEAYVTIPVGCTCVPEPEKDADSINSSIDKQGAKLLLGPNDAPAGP
Experimental: (§1) MaxiSorp 96-well plates (NUNC # 449824, www.thermofisher.com) were coated with 2 μg/ml human IL-17A (Cell Signaling #89285F, www.cellsignal.com), human IL-17F (Cell Signaling #8906LC, www.cellsignal.com), human IL-17B (Peprotech #200-28, www.peprotech.com), human IL-17C (R&D systems #1234-IL-025/CF, www.rndsystems.com), human IL-17D ((Peprotech #200-27, www.peprotech.com), human IL-17E (R&D systems #1258-IL-025/CF, www.rndsystems.com) in 1× PBS (50 μl/well) respectively. Plates were incubated at 4° C. overnight. Coating solution was removed and plates were washed once with 200 μl/well PBST (1× PBS with 0.05% tween-20). Then 200 μl/well blocking buffer (1× PBS with 0.05% tween-20, 3% BSA) was added and incubated at room temperature for 1 hour. Blocking buffer was removed and plates were washed three times with 200 μl/well PBST (1× PBS with 0.05% tween-20). The anti-IL17A/F antibody, hIgG VH1-1/VL5, was diluted to […], 0.000102, 0.000034 μg/ml by 1× PBS and added to the plates (50 μl/well). Plates were incubated at room temperature for 2 hours. Antibodies in the wells were removed and plates were washed three times with 200 μl/well PBST (1× PBS with 0.05% tween-20). Goat anti-human IgG(H&L)—HRP secondary antibody (Jackson Immuno Research #109-035-088, www.jacksonimmuno.com) was diluted 1:5000 in 1× PBS and added to each well (50 μl/well). Plates were incubated at room temperature for 1 hour. Secondary antibody was removed and plates were washed seven times with 200 μl/well PBST (1× PBS with 0.05% tween-20). 50 μl/well TMB (eBioscience # 85-00-4201-56, www.ebioscience.com) was added and plates were incubated at room temperature for several minutes. Then 50 μl/well 2N H₂SO₄ was added to stop the reaction. Plates were read at 450 nm. […] So, the hIgG VH1-1/VL5 antibody has binding specificity to human IL-17A and 17F and has no cross-reactivity to other IL-17 family members.

[5] = molecular target: T5, human IL-17E (human, UniProt Q9H293 33-177); test: ELISA, cytokine coated at 2 µg/ml
T5 construct: Commercial recombinant protein; also called IL-25
T5 sequence (looked up): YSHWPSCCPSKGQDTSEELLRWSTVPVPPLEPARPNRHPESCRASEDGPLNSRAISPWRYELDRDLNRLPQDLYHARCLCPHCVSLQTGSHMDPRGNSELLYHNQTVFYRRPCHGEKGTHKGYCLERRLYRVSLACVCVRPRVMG
Experimental: as §1

[6] = molecular target: T6, human IL-17B (human, UniProt Q9UHF5 21-180); test: ELISA, cytokine coated at 2 µg/ml
T6 construct: Commercial recombinant protein
T6 sequence (looked up): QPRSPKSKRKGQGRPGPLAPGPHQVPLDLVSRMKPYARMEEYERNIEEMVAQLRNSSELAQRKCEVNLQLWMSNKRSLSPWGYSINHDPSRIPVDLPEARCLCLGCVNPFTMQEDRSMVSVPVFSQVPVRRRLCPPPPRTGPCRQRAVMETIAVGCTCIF
Experimental: as §1

[7] = molecular target: T7, human IL-17C (human, UniProt Q9P0M4 19-197); test: ELISA, cytokine coated at 2 µg/ml
T7 construct: Commercial recombinant protein
T7 sequence (looked up): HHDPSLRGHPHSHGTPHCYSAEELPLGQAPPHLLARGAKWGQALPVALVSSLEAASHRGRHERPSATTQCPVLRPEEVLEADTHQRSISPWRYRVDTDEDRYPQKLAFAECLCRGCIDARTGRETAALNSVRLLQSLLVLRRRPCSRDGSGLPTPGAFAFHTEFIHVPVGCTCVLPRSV
Experimental: as §1

[8] = molecular target: T1, human IL-17A; test: ELISA, human IL-17A coated at 2 µg/ml
Experimental: (§2) MaxiSorp 96-well plates (NUNC # 449824, www.thermofisher.com) were coated with 2 μg/ml human IL-17A (Cell Signaling #89285F, www.cellsignal.com), human IL-17F (Cell Signaling #8906LC, www.cellsignal.com), human IL-17B (Peprotech #200-28, www.peprotech.com), human IL-17C (R&D systems #1234-IL-025/CF, www.rndsystems.com), human IL-17D ((Peprotech #200-27, www.peprotech.com), human IL-17E (R&D systems #1258-IL-025/CF, www.rndsystems.com) in 1× PBS (50 μl/well) respectively. Plates were incubated at 4° C. overnight. Coating solution was removed and plates were washed once with 200 μl/well PBST (1× PBS with 0.05% tween-20). Then 200 μl/well blocking buffer (1× PBS with 0.05% tween-20, 3% BSA) was added and incubated at room temperature for 1 hour. Blocking buffer was removed and plates were washed three times with 200 μl/well PBST (1× PBS with 0.05% tween-20). The anti-IL17A/F antibody, hIgG VH1-1/VL5, was diluted to 10, 3.33, 1.11, 0.37, 0.123, 0.041, 0.0137, 0.0046, 0.0015, 0.00031, 0.000102, 0.000034 μg/ml by 1× PBS and added to the plates (50 μl/well). Plates were incubated at room temperature for 2 hours. Antibodies in the wells were removed and plates were washed three times with 200 μl/well PBST (1× PBS with 0.05% tween-20). […] Plates were read at 450 nm. […]

[9] = molecular target: T2, human IL-17F; test: ELISA, human IL-17F coated at 2 µg/ml
Experimental: as §2

[10] = molecular target: T1, human IL-17A; test: ELISA, human IL-17A coated at 2 µg/ml; remark: listed apart in the source
Experimental: as §2

[11] = molecular target: T2, human IL-17F; test: ELISA, human IL-17F coated at 2 µg/ml; remark: listed apart in the source
Experimental: as §2

[12] = molecular target: T8, cynomolgus IL-17A (cynomolgus, UniProt A0A2K5TTB0 24-155); test: ELISA, cynomolgus IL-17A coated at 2 µg/ml
T8 sequence: T1 sequence (looked up) with T3A, P8S, N34S, I77V, N78K, P104R
Experimental: (§3) Human IgG1 (hIgG1) was used as a control antibody. EC50 values were calculated by GraphPad Prism.
(§4) The binding of anti-IL-17A/F antibody to cynomolgus IL-17A and IL-17F was determined by ELISA. Assay was performed in the same method of Example 7, except that cynomolgus IL-17A (Gene ID: XM 005552759.2, in-house production according to standard molecular biology method, Carson S, Molecular Biology Techniques, 2012) and IL-17F (Gene ID: XM_005552757.2, in-house production according to standard molecular biology method, Carson S, Molecular Biology Techniques, 2012) were used to replace human IL-17A and F, respectively.

[13] = molecular target: T9, cynomolgus IL-17F (cynomolgus, UniProt G7P4V0 31-163); test: ELISA, cynomolgus IL-17F coated at 2 µg/ml
T9 construct: also called cynomolgus 17F
T9 sequence: T2 sequence (looked up) with G22E, I29T, R73K, N74H, V100L, I129V
Experimental: as §3, §4

[14] = molecular target: T1, human IL-17A; test: SPR (Biacore T200), antibody captured by anti-human Fc, IL-17 as analyte
Experimental: Anti-human Fc gamma specific antibody (Jackson Immuno Research, Lot no. 124448, Code. 109-008-098) was immobilized onto the sensor chip using amine coupling method. Four antibodies secreted to the culture medium plus the parental antibody were injected and captured by anti-human Fc antibody via Fc (capture phase) individually. After equilibration, IL-17 was injected for 300 seconds (association phase) followed by the injection of running buffer for 1200s (dissociation phase). Responses of reference flow cell (flow cell 1) were subtracted from those of humanized antibodies flow cells during each cycle. The surface was regenerated before the injection of another humanized antibody. The process was repeated until all antibodies are analyzed. The off-rates of humanized antibodies were obtained from fitting the experimental data locally to 1:1 interaction model using the Biacore T200 evaluation software. The antibodies were ranked by their dissociation rate constants (off-rates, Kd). The binders that interact with IL-17 with similar affinity to parental antibody were selected.

[15] = molecular target: T1, human IL-17A; test: blocking ELISA: 0.5 ug/ml hIL-17A coated, antibody titrated, then 10 ug/ml hIL17RA-mIgG2aFc (blocked ligand partner); OD450 falls from about 1.3 to a lower plateau of about 0.67
Experimental: (§5) The effect of the anti-IL17A/F antibody (produced in Example 2) on the binding of IL-17A, IL-17F or IL17A/F to the IL-17 receptor was tested by ELISA. IL-17A, IL-17F or IL-17A/F was coated in 96 well plate with 50 μl/well protein solution (protein concentration was […]) at 4° C. overnight. The wells were blocked with 1% BSA in PBST (tween 0.05%) by 200 μl/well at room temperature for 1 hour. The wells were washed 3 times with PBST. The anti-IL17A/F antibody and isotype control antibody human IgG1 (Biolegend cat# 403102) were diluted by PBS from 30 μg/ml down to 0.0005 μg/ml ([…]). The antibodies were added into the corresponding wells (50 μl/well) and incubated at room temperature for 4 hours. The wells were washed 3 times with PBST. hIL17RA-mIgG2aFc (10 μg/ml, in-house production according to standard molecular biology technology, Carson S, Molecular Biology Techniques, 2012) were added into each well (50 μl/well) and incubated at room temperature for 1 hour. The wells were washed 3 times with PBST. Goat anti-human IgG-HRP (1:5000 in PBS, EASYBIO Cat# BE0102) were added into each well (50 μl/well) and incubated at room temperature for 30 min. The wells were washed 6 times with PBST. […] The plate was read at 450 nm and 570 nm.

[16] = molecular target: T2, human IL-17F; test: blocking ELISA: 0.5 ug/ml hIL-17F coated, antibody titrated, then 10 ug/ml hIL17RA-mIgG2aFc (blocked ligand partner); OD450 falls from about 1.35 to a lower plateau of about 0.87
Experimental: as §5

[17] = molecular target: T3, IL-17A/F heterodimer; test: blocking ELISA: 0.5 ug/ml hIL-17A/F heterodimer coated, antibody titrated, then 10 ug/ml hIL17RA-mIgG2aFc (blocked ligand partner); OD450 falls from about 1.9 to a lower plateau of about 0.6
Experimental: as §5

IC50 of inhibition of IL-17A-induced IL-6 production in HFF-1 cells [1] [pM] | IC50 of inhibition of IL-17F-induced IL-6 production in HFF-1 cells [2] [pM] | IC50 of inhibition of IL-17A/F heterodimer-induced IL-6 production in HFF-1 cells [3] [pM] | binding result [4] | binding result [5] | binding result [6] | binding result [7] | EC50 [8] [pM] | EC50 [9] [pM] | EC50 [10] [pM] | EC50 [11] [pM] | EC50 [12] [pM] | EC50 [13] [pM] | Kd [14] [pM] | koff [14] [s⁻¹] | kon [14] [M⁻¹ s⁻¹] | IC50 [15] [pM] | IC50 [16] [pM] | IC50 [17] [pM] | Binder
1730 | 1770 | 990 | no binding | no binding | no binding | no binding | 39 | 42 | 46 | 47 | 60 | 180 | 290 | 0.00059 | 2e+06 | 720 | 670 | 450 | B1
 |  |  |  |  |  |  |  |  |  |  |  |  | 840 | 0.0018 | 2.2e+06 |  |  |  | B2
